From patent US5847088A, “Antibodies specific for platelet-activating factor acetylhydrolase” (ICOS Corporation, priority 1995, dated 1998) come the findings set out here.

This test deals with PAF-induced pleurisy. The experiment in a line: PAF-induced pleurisy (Evans blue vascular leakage). It is filed as in vivo, rat. The note with it: 300 μl PAF-AH (1500 μmol/ml/hour) IV 15 minutes before 2.0 nmol PAF, 1 hour. As for the experimental part:
Fifteen minutes later the rats received an 100 μl injection of PAF (2.0 nmol) into the pleural space. One hour following PAF challenge, rats were sacrificed and the pleural fluid was collected by rinsing the cavity with 3 ml heparinized phosphate buffered saline. The degree of vascular leak was determined by the quantity of Evans blue dye in the pleural space which was quantitated by absorbance at 620 nm.

B1: PAF-AH: Recombinant human plasma platelet-activating factor acetylhydrolase (beginning at Ile42 of SEQ ID NO:8) expressed in E. coli (protein, UniProt Q13093 22-441, looked up)
Platelet-activating factor …: FDWQYINPVAHMKSSAWVNKIQVLMAAASFGQTKIPRGNGPYSVGCTDLMFDHTNKGTFLRLYYPSQDNDRLDTLWIPNKEYFWGLSKFLGTHWLMGNILRLLFGSMTTPANWNSPLRPGEKYPLVVFSHGLGAFRTLYSAIGIDLASHGFIVAAVEHRDRSASATYYFKDQSAAEIGDKSWLYLRTLKQEEETHIRNEQVRQRAKECSQALSLILDIDHGKPVKNALDLKFDMEQLKDSIDREKIAVIGHSFGGATVIQTLSEDQRFRCGIALDAWMFPLGDEVYSRIPQPLFFINSEYFQYPANIIKMKKCYSPDKERKMITIRGSVHQNFADFTFATGKIIGHMLKLKGDIDSNVAIDLSNKASLAFLQKHLGLHKDFDQWDCLIEGDDENLIPGTNINTTNQHIMLQNSSGIEKYN
B1: the “reduction in inflammation (vascular leakage, Evans blue in pleural space)” value was more than 80%.
